Values joined by “and” are separate entries in the source; they are usually repeats but may differ in a detail not shown here. Equal values may be shown once. Read-outs that look alike come from different tables or passages of the source.
B1: Lactococcus lactis Csm2 with N-terminal His6-tag (natural protein)
chain: TELKIGNEKVNSTNFGDFAEKAIRGINHKPFVNSKGGEQKITTSKIRGILELVNKVYNRVINTNDVELSENILADIAYIKVKIAYESGREPVVKDFIQRTAFTAAITDVMNQRTRESFLLFARYVESLIAYFKFYGGKD
B2: Lactococcus lactis Csm3 Asp30Ala (natural protein)
chain: MKLVIEGTIVLKTGMHIGGSSDFSAIGAVASPVVRDTLTRLPLIPGSSLKGKMRYLLAKELNNGILLNEPNNDQDEILRLFGSSEKDKIRRARLKFNDIKLSNLAELETFNVSSTEVKFENTINRKTAVANPRQIERVIAGSKFDFEIFYNLDDIKEVEKDFENIKQGFDLLEFDYLGGHGTRGSGRIAFENLSVITAVGNFEKINTLNEILGA

Columns and labels:
Assay in all cases: cryo-EM structure
[1] = biological target: B2
[2] = biological target: the molecule itself
[3] = biological target: the molecule itself; remark: listed apart in the source

binding result [1] | Binder | stoichiometry N [2] | stoichiometry N [3]
binds | B1 | 3 and 2 | 
 | B2 | 3 | 4
